Test results reported in IntAct's records for PubMed 15555586.

B1: Suppressor of kinetochore protein 1 (Schizosaccharomyces pombe (strain ATCC 38366 / 972)), Q9Y709 (parent)
chain: MSKIKLISSDNEEFVVDQLIAERSMLIKNMLEDVGEINVPIPLPNVSSNVLRKVLEWCEHHKNDLYSGTEEESDIRLKKSTDIDEWDRKFMAVDQEMLFEIVLASNYLDIKPLLDTGCKTVANMIRGKSPEDIRKTFNIPNDFTPEEEEQIRKENEWAEDR
partner: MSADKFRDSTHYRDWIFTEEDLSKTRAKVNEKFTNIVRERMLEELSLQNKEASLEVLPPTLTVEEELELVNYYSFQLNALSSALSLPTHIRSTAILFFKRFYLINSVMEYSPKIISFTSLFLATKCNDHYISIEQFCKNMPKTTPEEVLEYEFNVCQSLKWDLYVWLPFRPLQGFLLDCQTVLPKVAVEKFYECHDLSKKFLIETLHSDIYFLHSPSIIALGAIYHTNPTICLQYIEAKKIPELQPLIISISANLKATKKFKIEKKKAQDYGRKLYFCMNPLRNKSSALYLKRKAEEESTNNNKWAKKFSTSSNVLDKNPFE

Variants of: B1
Conditions: with cgm2_schpo mcs2, P36613

effect of a mutation on the interaction	Variant
decreasing interaction	MSKIKLISSDNEEFVVDQLIAERSMLIKNMLEDVGEINVPIPLPNVSSNVLRKVLEWCEHHKNDLYSGTEEESDIRLKKSTDIDEWDRKFMAVDQEMLFEIVLASNYLDIKPLLDTGCKTVANMIRGKSPEDIRKTFNNPNDFTPEEEEQIRKENEWAEDR
